Reference: publication doi:10.1101/2025.02.18.638599

Molecular target: AcrA S273C (Escherichia coli) (UniProt P0AE06)
Assay: cryo-EM structure

## AcrA S273C (from UniProt P0AE06 25-397) (natural protein)
  stoichiometry N: 6
